Measurements published in the DeepSol protein solubility set.

Assay: soluble on expression in E. coli; label from the status in PepcDB or PDB records

| Sequence | soluble on expression in E. coli |
| --- | --- |
| MEDKLVTLAILTYTKAQILKNVLENEGIETYIHNVNQIQPVVSSGVRLRIKESDLPRALKITESSTWLSESIVGEKTPKVDSKSNKILIPVDFSNYSMKACEFGFNLAKTENSEVILLHVYFTPIYASSLPYGDVFNYQIGDEESVKTIIQQVHSDLNALSDKIKEKVASGEFPDIKYSCILREGIPEEEILRYAKEQRPKVIIMGTRGKSQKDIDLIGSVTAEIIDRSRTAVLAIPENTPFKEFNEVKRIAFLTNFDQRDLIAFEAFFNTWKSFHFSVSLIHLAESKDTWNEIKLAGIKDYFQKQYPGLEIHYDVVMNDNLLKGLDKYIKDNQIDIITLTSYKRNIFARLFNPSIARKMIFHSDTPLLVING | not soluble |
| MEDKTLGLLLDVVGELFSDEISIAVSNTKEYIYYRPSKRIDLKISAGDPIKEGTIAHKAMVTNQKTSEFMNRDVFGIPYHGMAVPFSNNGKLEGCVTAIYPALTDGKSVVTLKTTDGWIPVPFSKVMYLEAKDKKTYVNAEELTGTHKYSLQEFEYLLPKDSFIRCHRSFIVNVNHIKAIYPDTHSTFLLSMDNGERVPVSQSYASYFRKLLGF | soluble |
| MEDKVDVLIIGGGASGVTSGIQSARMGANTLILEESTWLGGMLTSAGVSAVDGNYRLPAGLWGEFKNRLSDYYGGLDSLKTGWVSNVLFEPSVGNKILHEMVAAENNLKVWKQACLEEVKRTGDEWVAKVKVEGQGVKTVRAKVMIDATELGDVAKMCGLEHHHHHH | not soluble |
| MEDLRRYICDNTQKNIVMLVGRKVSDISKIARSYGNACMLRSFQGFRIVKSIYYYEDEVKISADGIVLCKDSLDELLRTVEQNNHVEIRNAVATFYDEMSSMGMNGESMNLNINYLLFQFIHLASEQDDNVNQQEILRLISESSFKTGIERGSRAHMTRFCCEYGDYLSQLRKNVSRGVIGMVEKEVRDNYATNITLKSLSEKYYVNSAYLGQLFRKKYGQSFKDYLNNYRMERAAELLLRTDKKIIQIAEEVGYHDMDYFVNRFIQVKGCTPARFRRQMQSGE | not soluble |
| MEEEEYEQIPQENPPEELSQDPVLELSGGLREKEQKTPRRLRLILMGKTGSGKSATGNSILGRDVFESKLSTRPVTKTSQRRSREWAGKELEVIDTPNILSPQVSPEVADAICQAIVLSAPGPHAVLLVTQLGRFTDEDQQVVRRLQEVFGVGVLGHTILVFTRKEDLAGGSLEDYVRETNNQALAWLDVTLARRHCGFNNRAQGEEQEAQLRELMEKVEAIMWENEGDYYSNKAYQYTQQNFRLKELQERQVSQGQGSEDVPGEESWLEGLSQIQKESEEAHRCLLGKADL | soluble |
| MEEIPEHEGYKFRVARPRTDFRGTHQYASPNAHMLIELGRHDDIWSLMYMVAESFVELPWTRCEETEVEHYMNQSTILRLFSDEKNPTRLNADMRRQLDEIDSMLKASKYYDSPNYDAVYQFFKDSMAKAKVTWDTPFDWEIGNTLSEETSKGVKRKMGGPWENPGLFFTVLQ | not soluble |
| MEEKKPVNLVLPEVENAIFIEGYPGVGLVGHIAANFLAKELDMDLIGYVDSLFIPPMSLILEGRPTPPLRFYGKNNIIIAIADIFLPPTLVNEIAKEIVNYLKKVNAEKVISLAGMGIGFFKDTFEVWGIGGSEEENKELESLGVKILKYGSITGMSGKLLWEASRAGLKSYVLLGETFGDRPDPRAAANVVEVLNKMLGLNVSVEPLLKEAEMIEEQLRRMHEQMEEARRKMERQYETMYL | not soluble |
| MEENGMKSKILIFGGTGYIGNHMVKGSLKLGHPTYVFTRPNSSKTTLLDEFQSLGAIIVKGELDEHEKLVELMKKVDVVISALAFPQILDQFKILEAIKVAGNIKRFLPSDFGVEEDRINALPPFEALIERKRMIRRAIEEANIPYTYVSANCFASYFINYLLRPYDPKDEITVYGTGEAKFAMNYEQDIGLYTIKVATDPRALNRVVIYRPSTNIITQLELISRWEKKIGKKFKKIHVPEEEIVALTKELPEPENIPIAILHCLFIDGATMSYDFKENDVEASTLYPELKFTTIDELLDIFVHDPPPPASAAF | soluble |
| MEEVEEFKYEPKSVKEIFIEMKDTVELMVDLAYASLLFGDKEIAEEVLELEERIDLLNYQLMMHSVLAARNVKEAEQVITILQIANAIEDISNAAGDLAKMVLEGVELHPVIKETILEGEEIIGKIQVYPESVIVGKTLGELDLATNTGVWIIAVRRGKRWIFGPNENFKIRAGDVLIGRGTRTSIDHLKEIARGAIRVIGNERA | soluble |
| MEEWDVPQMKKEVESLKYQLAFKREMSSKTIPELLKWIEDGIPKDPFLNPDLMKNNPWVEKAKCTIL | not soluble |
| MEFKLLQTFIEVVRQGSFSKAAENLFTTQSTVSKAIKQLEEELGITLIERFKKRNVPTTAGEIVYQRGTKLLADRDDLLKELDEIRGLKQGRLRLGISPVGSSTLFAPLFVLYRQRYPGIEVELVEHGSDKLAECLRAGEIDFAGTLLPISEEFDCQLVRSEPLVALLASGHPLATKHCISLPELKEIPFILFGSGFALHRIILDACRHAGFEPKVVAQSSQIDFMLELVAAGLGVTFLPRMIATQRHTTQIRSLLLNGSEFQWNMAMTWRRNSYLSEAAQAWLALVREVHVDN | not soluble |
| MEFMKLAIEEAKKGMEKGDGGPFGAVIVKDGKVIGSGHNMVLVTKDPTAHAEVTAIRNTCKNVDNFDLSGCQLYTSCYPCPMCMGAALWSRVDAIYYGATSQDAANIGFGDHEFHEFLQNPKSDDKRKLEQFKVDNYLEPFQLWSKKDNKELY | not soluble |
| MEGDTISRMMGSGVQMDGKILQTFEKSFVQVQNILDHNRLLINEINQNHESKIPDNLGRNVGLIRELNNNVRRVAHLYVDLSNNFSKSMEASSEGDSSEGRGNRRIRPA | soluble |
| MEGFPVRVRVDVRFRDLDPLGHVNNAVFLSYMELARIRYFQRISPDWLEEGHFVVARMEVDYLRPILLGDEVFVGVRTVGLGRSSLRMEHLVTANGESAAKGLGVLVWLEGGRPAPLPEAIRERIRALEGRPL | soluble |
| MEGIIDKENERVRRFFALLDDMEKKVERLARDNRPPFNGERFLTDRELSGMLKISRRCLQDYRDQGRIPYIQLGGKILYRQSDIERLLEENYHPALV | not soluble |
| MEGNGSVDMFSEVLENQFLQAAKLVENHLDSEIQKLDQIGEDELELLKEKRLAALRKAQQQKQEWLSKGHGEYREIGSERDFFQEVKESEKVVCHFYRDTTFRCKILDRHLAILAKKHLETKFLKLNVEKAPFLCERLRIKVIPTLALLRDGKTQDYVVGFTDLGNTDDFTTETLEWRLGCSDVINYSGNLMEPPFQSQKKFGTNFTKLEKKTIRGKKYDSDSDDD | soluble |
| MEGYPKIQYHGFIGNNRTAMLVAMNGYIDWGCLPNFNSNAVFSSILDKNKGGYFAIFPSDTTDVYVDQYYKEMTNVLVTEFVKNGKIILRLTDFMPDSEYGKISFPEVHRFVESFSEPIDITIDFKPTFNYLEHHHHHH | not soluble |
| MEHIYKLLRSFKWDCAKYLYKNTLNFKVKRLRRKKNIRVLFAVAESATWKSDCLYKAMAEHPRFTPSILVLPDEQKEKTLLKEEVDSCFNLFCRKGYACTYPYQNGKLINIRKKLKPDIIFYQKPYTFYPKSLLYYKNMNALFCYTNYAFHSLLTDWANDNEFFRLMWQNYYENESANVDLKKKFAGIFSNIVVTGLPVTDLFLTEKHEDKWKKTDKSRKRIIWAPHFSISDGGCLNYSTFLSIAEELLEFIKNTQLPVQMAFKPHPLLKSQLYNYSSWGKEKTDEYYAAWEFLPNAQLETNEYVDLFMTSDAMIHDCGSFTIEYHHTLKPVMYLVNGKEHTATMNSFAKAAYDLHYKGQTIQDIRNFIECTVLENSDYLLEKRKNFFKSYLLPPHNQSATENIIHAILGTGYYTEKKQR | not soluble |
| MEHLFGKWLPDLPAAISDGISLPMVRLLHTRSLTAALRALPHTFSVELLKLGELETECGGRLVREVLLKLDRIPVVEARSECRIGSAFWQNILDCGTRPLGERLFQADLEGARSAFEFAVAGEGCGRYFAARRSRFSRHGEEMLLTEYFLPELKRFIG | not soluble |
| MEHWYCTNMVGVPVGLIGSTAFNRCLRRITIHGTRETHPGLFRLLAACEYPATASEVFEHYMELEFGLAPGAHEPTQARYPTSYLDLLRGWGVESDCPKAAVLKGWVESRFGLVPTFHKQRLGLFPSSAWATYLQEKTDVRFHNNCIFQQFDLLYEYCQWSIRRFKTPGPRFVRLWRGTNDVEQQLVEGDARQRLCTVRLNNLVSFSDSKERAEEFGDWVLETEVPTVKLLFFPGLLQRQVLGYEGEFLVIGGNYKVRAYHGWFLEHHHHHH | soluble |
| MEILASRMLLRPADYQRSLSFYRDQIGLAIAREYGAGTVFFAGQSLLELAGYGEPDHSRGPFPGALWLQVRDLEATQTELVSRGVSIAREPRREPWGLHEMHVTDPDGITLIFVEVPEGHPLRTDTRA | soluble |
| MEIPVIEPLFTKVTEDIPGAAGPVFDKNGDFYIVAPYVEVNGKPAGEILRIDLKTGKKTVICKPEVNGYGGIPIGCQCDRDANQLFVADMRLGLLVVQTDGTFEEIAKKDSEGRRMQGCAYCAFDYEGNLWITAPAGEVAPADFTISLQEKFGSIYCFTTDGQMIQVDTAFQAPAGIAVRHMNDGRPYQLIVAEQPTKKLWSYDIKGPAKIENKKVWGHIPGTHKGGAAGMDFDEDNNLLVANWGSSHIEVFGPDGGQPKMRIRCPFEKPSALHFKPQTKTIFVTEHENNAVWKFEWQRNGKKQYCETLKFGIFGSLEHHHHHH | soluble |
| MEIQFLGTGAGQPAKARNVSSLVLKLLDELNEIWMFDCGEGTQRQILETTIKPRKIRKIFITHLHGDHVFGLPGFLSSRAFQANDEQTDVDIYGPVGIKHLVMASIRTSGAHLPYHIHFHEFDAKHLGKILETDKFMVYAEKLDHTIFCVGYRVVQKDLEGTLDAEKLKAAGLPFGPLFGRVKNGQDVVLEDGTTIIAKDYISAPKKGKVITILGDTRKTDASIRLALGADVLVHESTYSKGDENLARRHGHSTNTEAARVAKAASVKKLLLNHISARFLSHDISRMRDDAQEIFTDVHIVRDLEEVKLLEHHHHHH | not soluble |
| MEIRVKCRCGEEECSEWAIVELQGVVETQASFQGSIQNLEIGRLCHSDSSQGTYTFTVGYHELVGSKVTLKKPLLVLKKLQFDEVSGKATELEVVGIIRTKILFKTRPKPLISGNNNLSLFCS | not soluble |
| MEIVYKPLDIRNEEQFASIKKLIDADLSEPYSIYVYRYFLNQWPELTYIAVDNKSGTPNIPIGCIVCKMDPHRNVRLRGYIGMLAVESTYRGHGIAKKLVEIAIDKMQREHCDEIMLETEVENSAALNLYEGMGFIRMKRMFRYYLNEGDAFKLILPLTEKSCTRSTFLMHGRLAT | not soluble |
